The data set concerns the molecule itself. Nature of the data set: crystal structure.

We go through 1 protein from paper doi:10.1101/2022.06.30.498311 (bioRxiv, 2022).

B1: Sul1 (enzyme, UniProt P0C002 1-269, looked up)
chain: MVTVFGILNLTEDSFFDESRRLDPAGAVTAAIEMLRVGSDVVDVGPAASHPDARPVSPADEIRRIAPLLDALSDQMHRVSIDSFQPETQRYALKRGVGYLNDIQGFPDPALYPDIAEADCRLVVMHSAQRDGIATRTGHLRPEDALDEIVRFFEARVSALRRSGVAADRLILDPGMGFFLSPAPETSLHVLSNLQKLKSALGLPLLVSVSRKSFLGATVGLPVKDLGPASLAAELHAIGNGADYVRTHAPGDLRSAITFSETLAKFRSR
With B1, the binding result is reported as “binds”.
